US20240131153A1 (ABCENTRA, published 2024)

Target: oxidized LDL (oxLDL) (UniProt P04114 28-4563, limits assumed, oxidized LDL; kind of oxidation of the preparation used in the assay not stated)
Experiment: cell-based or functional assay

Sequence of oxidized LDL (oxLDL) (P04114 28-4563 limits assumed): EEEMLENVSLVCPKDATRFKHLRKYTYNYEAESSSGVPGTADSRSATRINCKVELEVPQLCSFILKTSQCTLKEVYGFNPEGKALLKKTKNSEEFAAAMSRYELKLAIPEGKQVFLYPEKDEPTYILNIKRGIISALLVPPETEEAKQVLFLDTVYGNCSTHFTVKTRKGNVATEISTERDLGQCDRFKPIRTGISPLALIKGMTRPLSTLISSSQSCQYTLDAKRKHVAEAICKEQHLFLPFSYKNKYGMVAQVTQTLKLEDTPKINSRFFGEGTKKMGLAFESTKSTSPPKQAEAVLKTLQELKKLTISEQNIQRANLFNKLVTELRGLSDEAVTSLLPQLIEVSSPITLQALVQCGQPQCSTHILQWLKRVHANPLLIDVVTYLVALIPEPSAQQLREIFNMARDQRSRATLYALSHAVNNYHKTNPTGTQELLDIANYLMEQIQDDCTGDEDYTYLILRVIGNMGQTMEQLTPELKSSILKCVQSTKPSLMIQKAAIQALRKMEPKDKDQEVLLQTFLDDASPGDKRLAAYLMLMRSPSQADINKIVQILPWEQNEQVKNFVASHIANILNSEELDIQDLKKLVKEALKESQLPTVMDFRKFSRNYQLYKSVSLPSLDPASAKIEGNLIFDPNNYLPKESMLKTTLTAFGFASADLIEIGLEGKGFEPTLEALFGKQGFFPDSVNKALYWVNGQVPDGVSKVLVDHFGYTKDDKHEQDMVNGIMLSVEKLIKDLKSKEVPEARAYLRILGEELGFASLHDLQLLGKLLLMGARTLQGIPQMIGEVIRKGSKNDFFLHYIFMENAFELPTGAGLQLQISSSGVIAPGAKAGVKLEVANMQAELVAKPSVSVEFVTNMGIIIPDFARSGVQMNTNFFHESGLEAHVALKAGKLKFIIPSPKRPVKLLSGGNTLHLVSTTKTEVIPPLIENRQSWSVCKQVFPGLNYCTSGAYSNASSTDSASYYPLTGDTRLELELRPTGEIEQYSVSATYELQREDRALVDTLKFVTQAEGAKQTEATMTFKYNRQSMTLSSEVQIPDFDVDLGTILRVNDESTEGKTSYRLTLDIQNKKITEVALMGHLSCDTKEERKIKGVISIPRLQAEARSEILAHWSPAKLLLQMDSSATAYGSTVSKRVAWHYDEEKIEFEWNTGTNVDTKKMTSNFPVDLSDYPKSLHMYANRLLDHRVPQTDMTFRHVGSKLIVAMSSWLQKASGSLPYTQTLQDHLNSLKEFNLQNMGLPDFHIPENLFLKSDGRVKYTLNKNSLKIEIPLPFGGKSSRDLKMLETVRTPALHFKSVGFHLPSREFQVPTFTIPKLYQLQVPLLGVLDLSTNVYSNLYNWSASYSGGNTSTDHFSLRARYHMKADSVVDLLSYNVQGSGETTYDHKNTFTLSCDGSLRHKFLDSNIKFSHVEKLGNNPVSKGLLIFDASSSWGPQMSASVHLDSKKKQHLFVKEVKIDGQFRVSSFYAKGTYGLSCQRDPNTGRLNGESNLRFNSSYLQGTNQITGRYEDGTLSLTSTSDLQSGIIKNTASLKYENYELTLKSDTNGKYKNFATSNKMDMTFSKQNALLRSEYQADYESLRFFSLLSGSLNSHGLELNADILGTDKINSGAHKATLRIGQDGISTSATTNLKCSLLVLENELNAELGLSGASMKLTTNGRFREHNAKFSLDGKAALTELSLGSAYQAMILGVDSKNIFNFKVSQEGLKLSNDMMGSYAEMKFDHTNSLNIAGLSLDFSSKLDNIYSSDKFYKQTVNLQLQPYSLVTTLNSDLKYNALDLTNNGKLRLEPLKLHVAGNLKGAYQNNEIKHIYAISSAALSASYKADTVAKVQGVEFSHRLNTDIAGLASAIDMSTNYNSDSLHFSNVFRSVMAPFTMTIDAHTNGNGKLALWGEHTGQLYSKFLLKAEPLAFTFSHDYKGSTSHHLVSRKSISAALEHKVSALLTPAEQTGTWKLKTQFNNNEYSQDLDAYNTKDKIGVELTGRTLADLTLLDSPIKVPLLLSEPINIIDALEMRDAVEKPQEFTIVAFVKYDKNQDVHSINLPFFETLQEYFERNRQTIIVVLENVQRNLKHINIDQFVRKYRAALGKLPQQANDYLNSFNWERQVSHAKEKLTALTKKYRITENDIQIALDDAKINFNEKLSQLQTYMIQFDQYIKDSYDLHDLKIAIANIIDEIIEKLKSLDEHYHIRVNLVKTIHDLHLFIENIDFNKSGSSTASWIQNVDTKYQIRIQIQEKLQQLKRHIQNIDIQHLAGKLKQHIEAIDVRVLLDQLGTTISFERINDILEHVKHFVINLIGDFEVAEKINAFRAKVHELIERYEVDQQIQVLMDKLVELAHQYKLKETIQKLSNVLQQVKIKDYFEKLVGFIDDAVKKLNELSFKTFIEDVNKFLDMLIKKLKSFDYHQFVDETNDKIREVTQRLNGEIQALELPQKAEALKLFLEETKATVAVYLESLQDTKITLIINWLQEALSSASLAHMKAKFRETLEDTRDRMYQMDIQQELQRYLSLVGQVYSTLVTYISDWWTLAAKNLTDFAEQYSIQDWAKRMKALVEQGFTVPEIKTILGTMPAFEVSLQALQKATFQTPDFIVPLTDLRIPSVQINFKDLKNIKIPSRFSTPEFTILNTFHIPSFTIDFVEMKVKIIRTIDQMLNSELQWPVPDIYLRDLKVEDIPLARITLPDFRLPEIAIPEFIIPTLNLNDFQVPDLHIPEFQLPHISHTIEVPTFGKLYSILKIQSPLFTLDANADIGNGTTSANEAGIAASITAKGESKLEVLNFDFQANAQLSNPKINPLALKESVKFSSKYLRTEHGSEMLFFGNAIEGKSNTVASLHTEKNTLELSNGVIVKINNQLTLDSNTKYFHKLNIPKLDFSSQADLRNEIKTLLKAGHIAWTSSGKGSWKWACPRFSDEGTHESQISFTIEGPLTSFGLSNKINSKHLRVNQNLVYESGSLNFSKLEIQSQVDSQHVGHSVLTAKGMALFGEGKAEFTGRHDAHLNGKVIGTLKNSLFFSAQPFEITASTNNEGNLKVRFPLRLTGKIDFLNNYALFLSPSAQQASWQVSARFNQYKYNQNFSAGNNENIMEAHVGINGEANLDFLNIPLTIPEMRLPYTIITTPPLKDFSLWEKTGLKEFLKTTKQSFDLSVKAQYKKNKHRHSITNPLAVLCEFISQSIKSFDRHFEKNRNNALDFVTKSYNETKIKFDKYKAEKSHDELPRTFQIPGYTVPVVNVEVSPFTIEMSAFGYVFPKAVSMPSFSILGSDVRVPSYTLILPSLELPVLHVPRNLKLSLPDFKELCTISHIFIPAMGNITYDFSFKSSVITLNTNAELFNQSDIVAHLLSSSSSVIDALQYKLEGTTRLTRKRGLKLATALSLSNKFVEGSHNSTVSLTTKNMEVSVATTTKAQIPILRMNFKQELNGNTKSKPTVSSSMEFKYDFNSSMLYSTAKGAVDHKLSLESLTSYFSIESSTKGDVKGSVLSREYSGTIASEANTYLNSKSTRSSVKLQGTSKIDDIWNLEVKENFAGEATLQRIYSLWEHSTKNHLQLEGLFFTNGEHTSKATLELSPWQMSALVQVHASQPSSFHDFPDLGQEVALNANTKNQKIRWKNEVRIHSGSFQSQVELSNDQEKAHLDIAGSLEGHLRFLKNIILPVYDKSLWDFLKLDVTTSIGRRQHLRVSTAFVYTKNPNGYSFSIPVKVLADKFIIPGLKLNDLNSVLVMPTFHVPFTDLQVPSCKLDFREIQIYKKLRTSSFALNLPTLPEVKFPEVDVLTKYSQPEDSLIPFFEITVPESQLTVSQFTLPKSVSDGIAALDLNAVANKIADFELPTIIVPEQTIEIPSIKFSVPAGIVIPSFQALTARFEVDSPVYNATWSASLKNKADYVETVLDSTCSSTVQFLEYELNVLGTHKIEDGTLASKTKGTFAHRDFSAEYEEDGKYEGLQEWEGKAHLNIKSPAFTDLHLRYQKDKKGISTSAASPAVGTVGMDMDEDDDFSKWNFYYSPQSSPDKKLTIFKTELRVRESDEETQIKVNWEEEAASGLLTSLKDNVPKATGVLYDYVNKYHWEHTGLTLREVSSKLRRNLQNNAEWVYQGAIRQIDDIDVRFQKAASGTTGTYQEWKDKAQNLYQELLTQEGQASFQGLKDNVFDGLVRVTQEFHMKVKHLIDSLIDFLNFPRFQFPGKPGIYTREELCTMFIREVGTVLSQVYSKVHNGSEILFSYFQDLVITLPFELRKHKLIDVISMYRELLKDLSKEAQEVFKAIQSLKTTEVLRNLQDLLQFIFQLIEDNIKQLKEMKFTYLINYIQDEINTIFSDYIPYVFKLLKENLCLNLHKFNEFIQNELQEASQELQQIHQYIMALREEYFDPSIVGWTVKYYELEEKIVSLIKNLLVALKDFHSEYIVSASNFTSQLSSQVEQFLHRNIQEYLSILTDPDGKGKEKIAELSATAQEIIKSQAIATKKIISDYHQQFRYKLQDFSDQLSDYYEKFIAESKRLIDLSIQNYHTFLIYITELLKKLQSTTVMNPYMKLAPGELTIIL

B1: orticumab (antibody, human IgG1, lambda, V domains shown)
VH: EVQLLESGGGLVQPGGSLRLSCAASGFTFSNAWMSWVRQAPGKGLEWVSSISVGGHRTYYADSVKGRSTISRDNSKNTLYLQMNSLRAEDTAVYYCARIRVGPSGGAFDYWGQGTLVTVSS
VL: QSVLTQPPSASGTPGQRVTISCSGSNTNIGKNYVSWYQQLPGTAPKLLIYANSNRPSGVPDRFSGSKSGTSASLAISGLRSEDEADYYCASWDASLNGWVFGGGTKLTVLG
IC50 for MCP-1 inhibition: ~10 nM
